Experimental findings from PMC5615210, “Design and Characterization of a Human Monoclonal Antibody that Modulates Mutant Connexin 26 Hemichannels Implicated in Deafness and Skin Disorders” (Frontiers in Molecular Neuroscience, 2017) are described below.

Experiment [1] deals with T1, pepEC1.1, peptide corresponding to residues 41-56 of Cx26 (Homo sapiens).
T1 construct: connexin 26 (Cx26), residues 41-56 in the EC1 domain; also called bait peptide; cognate peptide; source: synthetic peptide (Chinese Peptide Company)
T1 chain: Biotin-KEVWGDEQADFVCNTL
In words: ELISA; avidin-coated wells (1 ug/well), biotinylated pepEC1.1 captured (0.05 ug/well), abEC1.1 (1 mg/ml, diluted 1:100 in M-PBST) 1 h at 37 C, goat anti-human HRP conjugate, ABTS, OD at 405 nm. The settings on record: both partners purified. For orientation: ELISA stands for enzyme-linked immunosorbent assay.

Experiment [2] deals with endogenous Cx26 of mouse cochlear organotypic cultures (Mus musculus C57BL6/N, UniProt Q00977). In words: immunostaining of cells or tissue; cochlear organotypic cultures of P5 mice fixed in 4% PFA, not permeabilised, abEC1.1 (2 ug/ml) overnight at 4 C, fluorescein anti-human IgG secondary antibody, confocal microscopy; control with abEC1.1 pre-incubated overnight with pepEC1.1 at 1:10 (w/w). The following applies: one partner purified.

Ends that are not written are not given here. * marks the point of attachment. Biotin = O=C1N[C@H]2[C@H](CS[C@H]2CCCCC(=O)*)N1

B1: abEC1.1 antibody (scFv-Fc fusion protein) (scFv, V domains shown)
VH: QVQLQQSGGGVVQPGRSLRLSCAASGFTFSSYAMHWVRQAPGKGLEWVAVISHGGSNKYYADSVKGRFTISRDNSKNTLYLQMNSLRAEDTAVYYCARDFSWRGYYMDVWGKGTLVTVSS
VL: ETTLTQSPATLSLSPGERATLSCRASQSISSYLAWYQQKPGQAPRLLIYGASTRATGIPDRFSGSGSGTDFTLTISRLEPEDFAVYYCQQYGSSPRTFGGGTKVEIK
notes: scFv domain of abEC1.1 (VH and VL joined by a linker of seven amino acids); scFv-Fc format from a modified pFUSE vector (pfuse-hg1fc2); also called wild type abEC1.1; source: FreeStyle 293-F cells, transfected, purified (HiTrap Protein A HP); not shown: Fc (hinge and Fc of human IgG1), C-terminal, kept
Take B1: the binding result in experiment [1] and in experiment [2] was “binds” throughout.
